Paper PMC7618248, “VEL-dependent polymerization maintains the chromatin association of Polycomb proteins for the switch to epigenetic silencing” (Molecular cell, 2025)
Residue numbers refer to the chain shown, from its start. Names may count otherwise.

Molecular target: the molecule itself
Assay: SEC-MALS; purified Lip-VIN3VEL at increasing concentrations from 50 uM to 1250 uM; Superose6 Increase 10/300 column

B1: Lip-VIN3VEL (residues 500-603) wild type (domain or fragment, Arabidopsis thaliana, UniProt Q9FIE3 500-603, looked up)
chain: GKQGGNKRFKSRTVSLNEKPEINNAANGVGDKDLGHIVKTIRCLEEEGHIDKSFRERFLTWYSLRATHREVRVVKIFVETFMEDLSSLGQQLVDTFSESILSKR
notes: VIN3 VEL domain construct, Arabidopsis thaliana, residues 500-603; The end of the tag is read from the name Lip-VIN3VEL; also called WT VIN3VEL; 6xHisLip-tagged VIN3VEL; source: Escherichia coli, purified; not shown: 6xHis-Lip (lipoyl solubility tag), N-terminal, kept
B1: binds.

B2: Lip-VIN3VEL (residues 500-603) I575T (domain or fragment, Arabidopsis thaliana, UniProt Q9FIE3 500-603, looked up)
chain: B1 chain with I76T
notes: VIN3 VEL domain construct, Arabidopsis thaliana, residues 500-603, with I575 changed to the threonine found at the corresponding position of VRN5; The end of the tag is read from the name Lip-VIN3VEL; also called I575T mutant Lip-VIN3VEL; VIN3VEL I575T; source: Escherichia coli, purified; not shown: 6xHis-Lip (lipoyl solubility tag), N-terminal, kept
B2: binds.
